Results on one molecule are retold here after PMC2562697.

The series deals with MutSα subunit MSH2-His6;MutSα subunit MSH6 (human;human, UniProt P43246;P52701 1-934;1-1360, |). Put plainly: EMSA. On the technique in general: Mobility shift assays separate free from complexed probe on a gel.

B1: G:T mismatch 35 bp (dsDNA)
DNA 1: GTGGATCCCCCGGGCTGCGGGAATTCGATATCAAG
DNA 2: CTTGATATCGAATTCCTGCAGCCCGGGGGATCCAC
For B1, the binding result is “binds”.
